Data set [1] concerns LNCap membrane preparation. As to the kind of experiment: ELISA for binding of J415 deimmunized antibodies to LNCap membrane preparation. On the set-up: species or system human. How it is done: The J415 deimmunized antibodies (including various combinations of the deimmunized light chain and heavy chain subunits) were tested in an ELISA for binding to LNCap membrane preparation following the protocol as detailed above. ELISA plates were coated with LNCap membrane preparation and blocked with 5% BSA in phosphate buffered saline. Doubling dilutions of the J415 chimeric antibody (murine variable heavy and light chain regions fused to human constant heavy and light chain regions, respectively) and the deimmunized antibodies were applied. Detection was with horseradish peroxidase conjugated goat anti-human IgG and donkey anti-mouse for chimeric and mouse antibodies respectively. Color was developed with o-phenylene diamine substrate.
Background: In an ELISA, binding on a coated surface is turned into a signal by an enzyme label.

The test system of data set [2] is PSMA-positive human LNCaP tumors. As to the kind of experiment: Biodistribution of 111In labeled MAbs in nude mice bearing LNCaP tumors. It is filed as in vivo, mouse. How it is done: Prior to use, the cells were trypsinized, counted and suspended in Matrigel (Collaborative Biomedical Products, Bedford, Mass.). Nu/Nu Balb C mice 8-10 weeks of age were inoculated, in the right and left flanks, with a suspension of 5×10^6 LNCaP cells in Matrigel (BD Biosciences, Bedford Mass.). After a period of 14-18 days, tumors (100-300 mg) had developed. The PSMA-negative DU145 and PC3 cells were implanted in nude mice in an identical manner.
The PSMA-positive and PSMA-negative tumor bearing mice were injected, via the tail vein, with 80 KBq of the iodinated MAb (400 MBq/mg) in 200 μL of PBS (pH 7.4, 0.2% BSA). Groups of animals (3-8/group) were sacrificed after 2, 4 or 6 days. The major organs and tumors were recovered. The tissue samples were weighed and counted, with appropriate standards in an automatic NaI(Tl) counter. These measured relative activity data (cpm) were background corrected and expressed as a percentage of the injected dose per gram (% ID/g). […] J415, J591 and 7E11 were labeled with ^111In (100 MBq/mg). 80 KBq of the ^111In labeled MAbs were injected in groups of animals. The % ID/g in various organs and tumor tissues was determined at 2-6 days post injection in a similar way as described for ^131I labeled MAbs.

A further data set relates to LNCaP tumor sections. It counts as in vivo, mouse. The settings on record: 131I-labeled, 4 to 6 days after intravenous injection.

Substitutions are numbered along the chain they refer to.

Description for LNCaP tumor sections: For several animals (n=20), harvested tumor samples were immediately cooled in liquid nitrogen and frozen in embedding medium (O.C.T. 4583, Sakura Finetec, Torrance Calif.). Twenty micron sections were cut and the tumor sections were either fixed with acetone and placed in direct contact with a sheet of photographic film (Biomax, Kodak, Rochester, N.Y.) or stained with hematoxin/eosin prior to exposure of the film. Tumors from control animals were collected and cut into 10 μm sections. […] Non-specific binding was determined in the presence of 100 nM J591 MAb. These sections were then washed 3 times with PBS (containing 0.2% BSA) and once with Tris buffer prior to being fixed with acetone and then exposed to photographic film.

B1: deJ415: deimmunized J415, heavy chain J415DIVH4 combined with light chain J415DIVK5; ATCC PTA-4174 (antibody, V domains shown)
VH: EVKLEESGGGLVQPGGSMKISCVASGFTFSNYWMNWVRQSPEKGLEWVAEIRSQSNNFATHYAESVKGRVIISRDDSKSSVYLQMNSLRAEDTAVYYCTRRWNNFWGQGTTVTVSS
VL: NIVMTQFPKSMSASAGERMTLTCKASENVGTYVSWYQQKPTQSPKMLIYGASNRFTGVPDRFSGSGSGTDFILTISSVQAEDLVDYYCGQSYTFPYTFGGGTKLEMK
Consider B1, for which, in data set [1], the “binding to LNCap cells as compared to the chimeric antibody” value is recorded as “equivalent binding”.

B2: J415: murine monoclonal antibody to human PSMA; hybridoma ATCC HB-12109 (antibody, V domains shown)
VH: B1 VH with I20L, S87N, A94G, V95I, V112L
VL: B1 VL with A13I, A15V, M19V, T41E, S63T, G68A, A80T
As for B2, in data set [2], the “kinetics of blood clearance” value was “faster compared to 7E11”; the “tumor uptake over time” value was “gradually increased with time and is quite similar to that of 7E11”; the tumor/blood ratios result is “significantly higher compared to that of 7E11”. In addition, in the data set with LNCaP tumor sections, the intra-tumoral distribution pattern result was “distinct preferential accumulation in areas of viable tumor”.
